In PMC10798138 (Journal of inorganic biochemistry, 2023):

T1: bovine Adrenodoxin reductase (bovine, UniProt P08165 33-492)
T1 sequence: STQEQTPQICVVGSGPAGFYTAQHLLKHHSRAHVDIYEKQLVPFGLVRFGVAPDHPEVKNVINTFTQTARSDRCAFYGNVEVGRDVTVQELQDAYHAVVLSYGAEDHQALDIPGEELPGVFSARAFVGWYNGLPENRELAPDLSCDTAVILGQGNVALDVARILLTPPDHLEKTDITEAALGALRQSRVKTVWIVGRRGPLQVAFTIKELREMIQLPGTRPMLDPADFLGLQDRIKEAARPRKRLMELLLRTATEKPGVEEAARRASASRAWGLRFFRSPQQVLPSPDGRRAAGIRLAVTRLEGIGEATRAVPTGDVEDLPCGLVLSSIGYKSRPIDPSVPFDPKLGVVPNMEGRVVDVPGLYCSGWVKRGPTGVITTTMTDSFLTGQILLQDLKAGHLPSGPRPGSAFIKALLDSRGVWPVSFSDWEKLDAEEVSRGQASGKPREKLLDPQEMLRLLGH


Legend:
SEC = molecular target: the molecule itself; assay: SEC
[1] = molecular target: T1, bovine Adrenodoxin reductase; assay: NMR titration

| binding result [1] | Binder | binding result (SEC) |
| --- | --- | --- |
| – | full-length human Adrenodoxin with the L80V mutation (natural protein, UniProt P10109 62-184, looked up) SSEDKITVHFINRDGETLTTKGKVGDSLLDVVVENNLDIDGFGACEGTLACSTCHLIFEDHIYEKLDAITDEENDMLDVAYGLTDRSRLGCQICLTKSMDNMTVRVPETVADARQSIDVGKTS | binds |
| binds | full-length human Adrenodoxin (Ferredoxin 1), hAdx (2–124) (natural protein, UniProt P10109 62-184, looked up) SSEDKITVHFINRDGETLTTKGKVGDSLLDVVVENNLDIDGFGACEGTLACSTCHLIFEDHIYEKLDAITDEENDMLDLAYGLTDRSRLGCQICLTKSMDNMTVRVPETVADARQSIDVGKTS | – |
